Measurements from paper PMC10104585, “Yeast PIC-Mediator structure with RNA polymerase II C-terminal domain” (Proceedings of the National Academy of Sciences of the …, 2023).

B1: Med21 (natural protein, S. cerevisiae)
chain: MTDRLTQLQICLDQMTEQFCATLNYIDKNHGFERLTVNEPQMSDKHATVVPPEEFSNTIDELSTDIILKTRQINKLIDSLPGVDVSAEEQLRKIDMLQKKLVEVEDEKIEAIKKKEKLLRHVDSLIEDFVDGIANSKKST
notes: Med21, Mediator subunit (hook domain), S. cerevisiae; Stood in the assay as a subunit of cMed
B2: Med17 (natural protein, S. cerevisiae)
chain: MTTEDPDSNHLSSETGIKLALDPNLITLALSSNPNSSLHSPTSDEPVPESAGKADTSIRLEGDELENKTKKDNDKNLKFLKNKDSLVSNPHEIYGSMPLEQLIPIILRQRGPGFKFVDLNEKELQNEIKQLGSDSSDGHNSEKKDTDGADENVQIGEDFMEVDYEDKDNPVDSRNETDHKTNENGETDDNIETVMTQEQFVKRRRDMLEHINLAMNESSLALEFVSLLLSSVKESTGMSSMSPFLRKVVKPSSLNSDKIPYVAPTKKEYIELDILNKGWKLQSLNESKDLLRASFNKLSSILQNEHDYWNKIMQSISNKDVIFKIRDRTSGQKLLAIKYGYEDSGSTYKHDRGIANIRNNIESQNLDLIPHSSSVFKGTDFVHSVKKFLRVRIFTKIESEDDYILSGESVMDRDSESEEAETKDIRKQIQLLKKIIFEKELMYQIKKECALLISYGVSIENENKVIIELPNEKFEIELLSLDDDSIVNHEQDLPKINDKRANLMLVMLRLLLVVIFKKTLRSRISSPHGLINLNVDDDILIIRPILGKVRFANYKLLLKKIIKDYVLDIVPGSSITETEVEREQPQENKNIDDENITKLNKEIRAFDKLLNIPRRELKINLPLTEHKSPNLSLMLESPNYCNALIHIKFSAGTEANAVSFDTTFSDFKEVEDFLHFIVAEYIQQKKV
notes: Med17, Mediator head module subunit, S. cerevisiae; Stood in the assay as a subunit of cMed
B3: Med4 (natural protein, S. cerevisiae)
chain: MSVQDTKAVEFSMGHIRSSSVSLVAEATSNTNSEDKLSKVQLYEDLCRYEDTLSKLVESVDRFKPNLDIAKDLIRTDEALFENVKLLAEYDNIYRNLQKIDKDSEELDSKTRKILEILNECHDELKALPMLEQVEFEKNTILQQRSKINSTELLDYATKLSKFTKIPPTFDKGAVGPNNFIWPAEDALRRGMLAMASLHSKELTRIPGEEVEETEVPTVPPSQSEEQKGQMAKKEGTPKTDSFIFDGTAKEVGDEADNTKDKEKEENNDDALDLDLDLFDPDDF
notes: Med4, Mediator middle module subunit, S. cerevisiae; Stood in the assay as a subunit of cMed
B4: Med10 (natural protein, S. cerevisiae)
chain: MNGNSTNNEQLQQELATTQDQVASIIESFVELGVSIYDFPGTPEATKGMITNLQRNVDRLYKLNVRSNDPQSSLSKVDIPLEVVQYIEDGRNPDIYTREFVEAIRRSNQYQRGKMHGLKQLRDSLADKIVDEFPELKEPVEDIIKRTSPIDNVSNTH
notes: Med10, Mediator subunit (hook domain), S. cerevisiae; Stood in the assay as a subunit of cMed
B5: Med6 (natural protein, S. cerevisiae)
chain: MNVTPLDELQWKSPEWIQVFGLRTENVLDYFAESPFFDKTSNNQVIKMQRQFSQLNDPNAAVNMTQNIMTLPDGKNGNLEEEFAYVDPARRQILFKYPMYMQLEEELMKLDGTEYVLSSVREPDFWVIRKQRRTNNSGVGSAKGPEIIPLQDYYIIGANIYQSPTIFKIVQSRLMSTSYHLNSTLESLYDLIEFQPSQGVHYKVPTDTSTTATAATNGNNAGGGSNKSSVRPTGGANMATVPSTTNVNMTVNTMGTGGQTIDNGTGRTGNGNMGITTEMLDKLMVTSIRSTPNYI
notes: Med6, Mediator head module subunit, S. cerevisiae; Stood in the assay as a subunit of cMed
B6: Med7 (natural protein, S. cerevisiae, UniProt Q08278 1-222, looked up)
chain: MSNDPGNEVSSLYPPPPPYVKFFTQSNLEKLPKYKEKKAASAKQTAPNNSNGGSEEEITCALDYLIPPPMPKNQQYRAFGSIWQVKDQLPDLESMGLTQLYKKSTENESTNYQYKIQELRKLLKSLLLNYLELIGVLSINPDMYERKVENIRTILVNIHHLLNEYRPHQSRESLIMLLEEQLEYKRGEIREIEQVCKQVHDKLTSIQDTLRTGSQSPPSSSQ
notes: Med7, Mediator middle module subunit, S. cerevisiae; Stood in the assay as a subunit of cMed
B7: Med8 (natural protein, S. cerevisiae)
chain: MSQSTASLVPEGNQGSLQEDVSFDFNGVPGQALDAVRMRLAQLTHSLRRIRDEMSKAELPQWYTLQSQLNVTLSQLVSVTSTLQHFQETLDSTVVYPLPKFPTTSHESLVTTLLRKKNIPEVDEWMKYVRETSGVTTALLKDEEIEKLLQQDREITNWARTTFRNEYGKHDFKNEESLSEEHASLLVRDSKPSKPFNVDDVLKFTFTGEKPIITGSTSTSSSN
notes: Med8, Mediator head module subunit, S. cerevisiae; Stood in the assay as a subunit of cMed

These binders were tested against T1, Rpb1 (RNA polymerase II subunit carrying the C-terminal repeat domain) (S. cerevisiae, UniProt P04050 1-1733) (assay: cryo-EM structure; PIC-cMed-nucleosome complex assembled from the prepared factors on a His4 promoter / Widom-601 nucleosome template; GraFix sucrose gradient with glutaraldehyde cross-linking; 100 mM KCl, 25 mM K-HEPES pH 7.5, 2 mM MgCl2, 1 mM TCEP; reconstructions at 3.0 Å (PIC-cMed) and 3.6 Å (PIC-cMed-nucleosome), focused maps to 2.9-3.3 Å). Conditions: both partners purified.
T1 construct: Rpb1, subunit of RNA polymerase II, S. cerevisiae, with its C-terminal repeat domain (CTD) of 26 heptapeptide repeats of consensus YSPTSPS; Stood in the assay as a subunit of Pol II within the PIC; CTD peptides 1, 2 and 3 are stretches of its CTD seen in the map (6, 3 and 2 repeats); their register within the CTD could not be assigned; also called Rpb1 CTD; Pol II CTD
T1 sequence (P04050 whole entry, the tested form may be a part): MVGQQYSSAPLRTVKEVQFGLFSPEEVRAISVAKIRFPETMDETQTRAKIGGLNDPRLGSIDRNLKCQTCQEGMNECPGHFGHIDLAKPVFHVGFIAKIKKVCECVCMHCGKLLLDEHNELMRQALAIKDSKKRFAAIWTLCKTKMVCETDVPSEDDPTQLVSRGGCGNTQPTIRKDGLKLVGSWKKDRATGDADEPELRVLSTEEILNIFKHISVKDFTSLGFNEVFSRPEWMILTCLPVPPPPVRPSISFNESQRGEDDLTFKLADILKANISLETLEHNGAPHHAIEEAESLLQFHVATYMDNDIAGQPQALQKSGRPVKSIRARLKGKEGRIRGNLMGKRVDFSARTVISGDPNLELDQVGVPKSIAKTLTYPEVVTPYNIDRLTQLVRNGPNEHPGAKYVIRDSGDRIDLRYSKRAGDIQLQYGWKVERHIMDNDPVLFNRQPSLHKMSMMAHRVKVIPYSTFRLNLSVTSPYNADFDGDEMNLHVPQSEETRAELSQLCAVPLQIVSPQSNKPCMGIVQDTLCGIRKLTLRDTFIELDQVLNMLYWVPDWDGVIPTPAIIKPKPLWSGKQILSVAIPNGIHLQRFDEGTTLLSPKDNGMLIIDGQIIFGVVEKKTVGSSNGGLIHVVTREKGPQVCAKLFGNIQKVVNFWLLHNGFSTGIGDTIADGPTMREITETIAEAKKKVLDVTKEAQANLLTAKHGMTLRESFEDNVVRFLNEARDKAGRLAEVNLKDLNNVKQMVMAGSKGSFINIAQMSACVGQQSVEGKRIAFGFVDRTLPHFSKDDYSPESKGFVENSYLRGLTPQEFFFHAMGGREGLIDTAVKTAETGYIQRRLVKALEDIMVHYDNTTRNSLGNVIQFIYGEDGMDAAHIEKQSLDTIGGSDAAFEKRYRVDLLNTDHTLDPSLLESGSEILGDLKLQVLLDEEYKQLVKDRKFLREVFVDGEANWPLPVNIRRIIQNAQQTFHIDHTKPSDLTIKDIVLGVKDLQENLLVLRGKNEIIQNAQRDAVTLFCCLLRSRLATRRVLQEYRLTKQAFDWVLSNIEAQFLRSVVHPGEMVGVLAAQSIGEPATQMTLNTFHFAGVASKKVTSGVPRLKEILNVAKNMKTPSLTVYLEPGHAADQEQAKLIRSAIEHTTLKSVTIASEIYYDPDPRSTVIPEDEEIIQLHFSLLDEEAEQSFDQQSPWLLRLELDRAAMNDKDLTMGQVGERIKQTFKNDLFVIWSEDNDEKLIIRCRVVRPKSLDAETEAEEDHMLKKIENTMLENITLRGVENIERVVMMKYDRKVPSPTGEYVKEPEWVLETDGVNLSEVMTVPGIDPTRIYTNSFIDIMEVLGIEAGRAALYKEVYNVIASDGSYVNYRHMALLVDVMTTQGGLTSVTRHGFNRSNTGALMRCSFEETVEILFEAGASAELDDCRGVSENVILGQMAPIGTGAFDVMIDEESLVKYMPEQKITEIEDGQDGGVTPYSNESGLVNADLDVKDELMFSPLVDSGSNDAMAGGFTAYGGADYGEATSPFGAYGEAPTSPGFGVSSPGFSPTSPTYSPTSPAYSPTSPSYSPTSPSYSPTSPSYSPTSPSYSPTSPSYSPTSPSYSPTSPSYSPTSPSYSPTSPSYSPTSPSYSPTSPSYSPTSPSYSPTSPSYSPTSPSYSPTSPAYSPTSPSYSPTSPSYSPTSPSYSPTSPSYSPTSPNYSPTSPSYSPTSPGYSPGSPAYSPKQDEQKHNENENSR

Binding result, binds:
B1, B2, B3, B4, B5, B6, B7
